Laboratory results from IntAct's records for PubMed 12612073.

B1: Estrogen receptor (Homo sapiens), P03372 (parent)
chain: MTMTLHTKASGMALLHQIQGNELEPLNRPQLKIPLERPLGEVYLDSSKPAVYNYPEGAAYEFNAAAAANAQVYGQTGLPYGPGSEAAAFGSNGLGGFPPLNSVSPSPLMLLHPPPQLSPFLQPHGQQVPYYLENEPSGYTVREAGPPAFYRPNSDNRRQGGRERLASTNDKGSMAMESAKETRYCAVCNDYASGYHYGVWSCEGCKAFFKRSIQGHNDYMCPATNQCTIDKNRRKSCQACRLRKCYEVGMMKGGIRKDRRGGRMLKHKRQRDDGEGRGEVGSAGDMRAANLWPSPLMIKRSKKNSLALSLTADQMVSALLDAEPPILYSEYDPTRPFSEASMMGLLTNLADRELVHMINWAKRVPGFVDLTLHDQVHLLECAWLEILMIGLVWRSMEHPGKLLFAPNLLLDRNQGKCVEGMVEIFDMLLATSSRFRMMNLQGEEFVCLKSIILLNSGVYTFLSSTLKSLEEKDHIHRVLDKITDTLIHLMAKAGLTLQQQHQRLAQLLLILSHIRHMSNKGMEHLYSMKCKNVVPLYDLLLEMLDAHRLHAPTSRGGASVEETDQSHLATAGSTSSHSLQKYYITGEAEGFPATV
B2: Progesterone receptor (Homo sapiens), P06401-1 (parent)
chain: MTELKAKGPRAPHVAGGPPSPEVGSPLLCRPAAGPFPGSQTSDTLPEVSAIPISLDGLLFPRPCQGQDPSDEKTQDQQSLSDVEGAYSRAEATRGAGGSSSSPPEKDSGLLDSVLDTLLAPSGPGQSQPSPPACEVTSSWCLFGPELPEDPPAAPATQRVLSPLMSRSGCKVGDSSGTAAAHKVLPRGLSPARQLLLPASESPHWSGAPVKPSPQAAAVEVEEEDGSESEESAGPLLKGKPRALGGAAAGGGAAAVPPGAAAGGVALVPKEDSRFSAPRVALVEQDAPMAPGRSPLATTVMDFIHVPILPLNHALLAARTRQLLEDESYDGGAGAASAFAPPRSSPCASSTPVAVGDFPDCAYPPDAEPKDDAYPLYSDFQPPALKIKEEEEGAEASARSPRSYLVAGANPAAFPDFPLGPPPPLPPRATPSRPGEAAVTAAPASASVSSASSSGSTLECILYKAEGAPPQQGPFAPPPCKAPGASGCLLPRDGLPSTSASAAAAGAAPALYPALGLNGLPQLGYQAAVLKEGLPQVYPPYLNYLRPDSEASQSPQYSFESLPQKICLICGDEASGCHYGVLTCGSCKVFFKRAMEGQHNYLCAGRNDCIVDKIRRKNCPACRLRKCCQAGMVLGGRKFKKFNKVRVVRALDAVALPQPVGVPNESQALSQRFTFSPGQDIQLIPPLINLLMSIEPDVIYAGHDNTKPDTSSSLLTSLNQLGERQLLSVVKWSKSLPGFRNLHIDDQITLIQYSWMSLMVFGLGWRSYKHVSGQMLYFAPDLILNEQRMKESSFYSLCLTMWQIPQEFVKLQVSQEEFLCMKVLLLLNTIPLEGLRSQTQFEEMRSSYIRELIKAIGLRQKGVVSSSQRFYQLTKLLDNLHDLVKQLHLYCLNTFIQSRALSVEFPEMMSEVIAAQLPKILAGMVKPLLFHKK

Variants of: B1
Conditions: with PGR

effect of a mutation on the interaction	Variant
with no effect	MTMTLHTKASGMALLHQIQGNELEPLNRPQLKIPLERPLGEVYLDSSKPAVYNYPEGAAYEFNAAAAANAQVYGQTGLPYGPGSEAAAFGSNGLGGFPPLNSVSPSPLMLLHPPPQLSPFLQPHGQQVPYYLENEPSGYTVREAGPPAFYRPNSDNRRQGGRERLASTNDKGSMAMESAKETRYCAVCNDYASGYHYGVWSCEGCKAFFKRSIQGHNDYMCPATNQCTIDKNRRKSCQACRLRKCYEVGMMKGGIRKDRRGGRMLKHKRQRDDGEGRGEVGSAGDMRAANLWPSPLMIKRSKKNSLALSLTADQMVSALLDAEPPILYSEYDPTRPFSEASMMGLLTNLADRELVHMINWAKRVPGFVDLTLHDQVHLLECAWLEILMIGLVWRSMEHPGKLLFAPNLLLDRNQGKCVEGMVEIFDMLLATSSRFRMMNLQGEEFVCLKSIILLNSGVYTFLSSTLKSLEEKDHIHRVLDKITDTLIHLMAKAGLTLQQQHQRLAQLLLILSHIRHMSNKGMEHLYSMKCKNVVPLFDLLLEMLDAHRLHAPTSRGGASVEETDQSHLATAGSTSSHSLQKYYITGEAEGFPATV [Y537F]

Variants of: B2
Conditions: with esr1_human ESR1, P03372

effect of a mutation on the interaction	Variant
with no effect	P422A;P423A;P426A

Variants of: B2
Conditions: with src_human SRC

effect of a mutation on the interaction	Variant
disrupting interaction strength	P422A;P423A;P426A
